The values that follow come from PMC7132299 (Proceedings of the National Academy of Sciences of the …, 2020).

Series [1] has as its target LRX11 (insect-cell protein, limits not stated for the experiment) (Arabidopsis thaliana). The series can be described thus: SEC-MALS. (Size exclusion chromatography separates by hydrodynamic size, large species first.)
In series [2] the test system is wild-type pollen tubes. The series can be described thus: Pollen tube growth assay after peptide addition. In kind it is cell-based, Arabidopsis thaliana. The following applies: peptide at 50 and 100 nM.
The target in series [3] is LRX8 (insect-cell protein, limits not stated for the experiment) (Arabidopsis thaliana). Put plainly: SEC-MALS.
The target of series [4] is LLG2 ectodomain (residues 24 to 135) (Arabidopsis thaliana) (UniProt Q6NLF4). The series can be described thus: ITC.
LLG2 ectodomain (residues 24 to 135) (Arabidopsis thaliana), sequence (Q6NLF4 24-135): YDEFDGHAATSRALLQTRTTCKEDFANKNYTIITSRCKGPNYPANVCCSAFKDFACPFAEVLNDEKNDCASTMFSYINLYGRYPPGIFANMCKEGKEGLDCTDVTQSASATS
Series [5] has as its target LLG3 ectodomain (residues 24 to 137) (Arabidopsis thaliana) (UniProt Q9M0I0). Put plainly: ITC. For orientation: ITC needs no label: the signal is the heat of the interaction.
For series [6], the target named is LRX8_(49–400) (Arabidopsis thaliana). Put plainly: ITC.
Series [7] addresses biotinylated LRX8 (49 to 400) fused to a noncleavable Avi-tag (Arabidopsis thaliana). Put plainly: grating-coupled interferometry.
Series [8] deals with LLG3 ectodomain (residues 24 to 137) (Arabidopsis thaliana) (UniProt Q9M0I0). The series can be described thus: ITC. The source holds these as a separate data set.
LLG3 ectodomain (residues 24 to 137) (Arabidopsis thaliana), sequence (Q9M0I0 24-137): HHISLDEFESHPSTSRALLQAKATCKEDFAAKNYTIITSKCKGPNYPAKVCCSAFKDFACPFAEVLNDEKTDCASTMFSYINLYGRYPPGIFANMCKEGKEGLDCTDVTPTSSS
Series [9] concerns the target LRX8_(49–400) (Arabidopsis thaliana). The series can be described thus: ITC. This is another data set of the same source.
Series [10] deals with LRX8_(C157A.Y87A.A133F) (Arabidopsis thaliana). The series can be described thus: ITC.
Series [11] deals with the molecule itself. The series can be described thus: SEC-MALS.
The target in series [12] is LRX8_(49–400) (Arabidopsis thaliana). The series can be described thus: ITC. The source holds these as a separate data set.

Like-named read-outs stand apart in the source and are kept apart here.

As a reminder, the stoichiometry N is a count of units in the complex or per binding partner. On to “LRX11 (insect-cell protein, limits not stated for the experiment) (domain or fragment)”, for which the stoichiometry N in [1] turned out to be 2.

Regarding “PTYNSCRRKCKRDRGYAARRYKRYRYVNADIKRNHSGYPCRICSRLYGRN [RALF4scrambled]”, the “effect on pollen tube growth, in words” value in [2] was “no effect”.

The term Kd denotes a measure of binding affinity in units of concentration. A high value points to a looser complex. In general, kon refers to a measure of how fast the partners come together. For the molecule “RALF4_(folded) (RALF4 residues 58 to 110, isolated from insect cells) (peptide)”, the stoichiometry N in series [1] and in series [3] was 1 each time. Also, the Kd turned out to be 500 nM in series [4]; 1500 nM in [5]; 100 nM in series [6]; 11000 nM in [8]; 3.5 nM in [9]; 2.5 nM in series [10]. The molecule further had a kon in series [7] of 400000 M⁻¹ s⁻¹.

B1: LRX8 (insect-cell protein, limits not stated for the experiment) (domain or fragment)
chain: ENGDLPDDIEYEVDLDLKFANNRLKRAYIALQAWKKAFYSDPFNTAANWVGPDVCSYKGVFCAPALDDPSVLVVAGIDLNHADIAGYLPPELGLLTDVALFHVNSNRFCGVIPKSLSKLTLMYEFDVSNNRFVGPFPTVALSWPSLKFLDIRYNDFEGKLPPEIFDKDLDAIFLNNNRFESTIPETIGKSTASVVTFAHNKFSGCIPKTIGQMKNLNEIVFIGNNLSGCLPNEIGSLNNVTVFDASSNGFVGSLPSTLSGLANVEQMDFSYNKFTGFVTDNICKLPKLSNFTFSYNFFNGEAQSCVPGSSQEKQFDDTSNCLQNRPNQKSAKECLPVVSRPVDCSKDKCAGG
modifications: N-glycosylated
Regarding B1, the “stoichiometry N” value in series [11] was determined as 2.

Regarding RRYIGYDALKKNNVPCSRRGRSYYDAKKRRRNNPYRRGCSAITHAYRYAR [RALF4_(C86A.C105A)], in series [12], the fold reduction of affinity (against RALF4 (folded)) stood at 10 fold.

With RRYIGYDALKKNNVPASRRGRSYYDAKKRRRNNPYRRGASAITHAYRYAR [RALF4_(C76A.C86A.C99A.C105A)], in [12], the fold reduction of affinity (against RALF4 (folded)) stood at 10 fold.

As to RRYIGYDALKKNNVPCSRRGRSYYDCKKRRRNNPYRRGCSAITHCYRYAR [RALF4_(synthetic)], the Kd in [12] came to 60 nM.

With RRYIGYDALKKNNVPCSRRGRSAADCKKRRRNNPYRRGCSAITHCYRYAR [RALF4_(Y83A.Y84A)], the Kd in [12] was 1400 nM.
